Laboratory results published in US12414933B2, “Polyphosphazene drug carriers” (ONSELEX PHARMACEUTICALS, INC., priority 2019, dated 2025).

Tested on: Sprague-Dawley rats
Experiment: Intravenous toxicity study: maximum tolerated dose after a single IV injection, 7-day observation
Format: in vivo, rat
From the text: The objective of this study was to determine the maximum tolerated dose in test animals following a single parenteral administration, in this case an intravenous (IV) injection, of the drug delivery compositions to Sprague-Dawley rats followed by a 7-day observation period.
In this Example, drug delivery compositions were optimized to carry and deliver the active chemotherapeutic agent Paclitaxel (PTX at about 5%). (See, Table 5 infra). Briefly, under sterile conditions in a laminar flow cabinet sterile water for formation and injection purposes was added to the appropriate amount of drug deliver composition to provide concentrations of 350, 817, 1167, and 1750 mg/mL. The diluted drug deliver compositions were stirred, mixed, or vortexed as necessary to achieve sufficient distribution. The prepared drug deliver compositions were stored protect from light at ambient temperature. The final formulation for each concentration was passed through a 0.2 μm filter prior to administration. The target volume prepared for each dose was 1.55 mL. The actual volume dispensed post-filtering was recorded. Final formulations for administration can be used up to 4 hours after preparation.
Subjects in this Example consisted of age appropriate to weight intact male Sprague-Dawley rats. Various commercial sources of Sprague-Dawley rats are acceptable for supply of Subject animals. Maximum Subject animal weight at initiation of the administrations was 330 gm while minimum weight was 260 gm. Subject animals were housed, feed, provided watered ad libitum, and observed according to standard animal husbandry protocols. Subject animals were excluded for any observable disease or injury that could affect study outcome. […]

Substance: [NP(MPEG550)3(Lys-OEt)(AA)(PTX)]n [PETTAX-121]
- Clinical results: morbidity / euthanasia (Group 4: single slow bolus IV 8750 mg/kg PETTAX-121 (PTX 437.5 mg/kg), 1 male rat): euthanized 20 hours after administration due to observed morbidity
- Clinical results: tolerability / adverse reactions (Groups 1-3: single slow bolus IV 1750, 4083 and 5833 mg/kg PETTAX-121 (PTX 87.5, 204.2, 291.7 mg/kg), 1 male rat per group, 7-day observation): tolerated their respective administration well with no observed adverse reactions or clinically significant observations
- Clinical results: physical changes (Groups 1-3: single slow bolus IV 1750, 4083 and 5833 mg/kg PETTAX-121, 1 male rat per group, 7-day observation): no significant physical changes
